Laboratory results from IntAct's records for PubMed 16469698.

B1: Transcription-repair-coupling factor (Escherichia coli (strain K12)), P30958 (parent)
chain: MPEQYRYTLPVKAGEQRLLGELTGAACATLVAEIAERHAGPVVLIAPDMQNALRLHDEISQFTDQMVMNLADWETLPYDSFSPHQDIISSRLSTLYQLPTMQRGVLIVPVNTLMQRVCPHSFLHGHALVMKKGQRLSRDALRTQLDSAGYRHVDQVMEHGEYATRGALLDLFPMGSELPYRLDFFDDEIDSLRVFDVDSQRTLEEVEAINLLPAHEFPTDKAAIELFRSQWRDTFEVKRDPEHIYQQVSKGTLPAGIEYWQPLFFSEPLPPLFSYFPANTLLVNTGDLETSAERFQADTLARFENRGVDPMRPLLPPQSLWLRVDELFSELKNWPRVQLKTEHLPTKAANANLGFQKLPDLAVQAQQKAPLDALRKFLETFDGPVVFSVESEGRREALGELLARIKIAPQRIMRLDEASDRGRYLMIGAAEHGFVDTVRNLALICESDLLGERVARRRQDSRRTINPDTLIRNLAELHIGQPVVHLEHGVGRYAGMTTLEAGGITGEYLMLTYANDAKLYVPVSSLHLISRYAGGAEENAPLHKLGGDAWSRARQKAAEKVRDVAAELLDIYAQRAAKEGFAFKHDREQYQLFCDSFPFETTPDQAQAINAVLSDMCQPLAMDRLVCGDVGFGKTEVAMRAAFLAVDNHKQVAVLVPTTLLAQQHYDNFRDRFANWPVRIEMISRFRSAKEQTQILAEVAEGKIDILIGTHKLLQSDVKFKDLGLLIVDEEHRFGVRHKERIKAMRANVDILTLTATPIPRTLNMAMSGMRDLSIIATPPARRLAVKTFVREYDSMVVREAILREILRGGQVYYLYNDVENIQKAAERLAELVPEARIAIGHGQMRERELERVMNDFHHQRFNVLVCTTIIETGIDIPTANTIIIERADHFGLAQLHQLRGRVGRSHHQAYAWLLTPHPKAMTTDAQKRLEAIASLEDLGAGFALATHDLEIRGAGELLGEEQSGSMETIGFSLYMELLENAVDALKAGREPSLEDLTSQQTEVELRMPSLLPDDFIPDVNTRLSFYKRIASAKTENELEEIKVELIDRFGLLPDPARTLLDIARLRQQAQKLGIRKLEGNEKGGVIEFAEKNHVNPAWLIGLLQKQPQHYRLDGPTRLKFIQDLSERKTRIEWVRQFMRELEENAIA

Variants of: B1
Settings: with rpob_ecoli rpoB

Row | effect of a mutation on the interaction | Variant
1 | decreasing interaction | L499R
